Results from publication PMC3965211.

Target: Full-length human His6-Kif15 (human) (UniProt Q9NS87)
Test: glycerol gradient ultracentrifugation; 2.5 µM hTpx2 (dimer) + 80 nM hKif15 (tetramer), 5-40% glycerol gradient in 35 mM sodium phosphate buffer

Full-length human His6-Kif15 (human), sequence (Q9NS87 whole entry): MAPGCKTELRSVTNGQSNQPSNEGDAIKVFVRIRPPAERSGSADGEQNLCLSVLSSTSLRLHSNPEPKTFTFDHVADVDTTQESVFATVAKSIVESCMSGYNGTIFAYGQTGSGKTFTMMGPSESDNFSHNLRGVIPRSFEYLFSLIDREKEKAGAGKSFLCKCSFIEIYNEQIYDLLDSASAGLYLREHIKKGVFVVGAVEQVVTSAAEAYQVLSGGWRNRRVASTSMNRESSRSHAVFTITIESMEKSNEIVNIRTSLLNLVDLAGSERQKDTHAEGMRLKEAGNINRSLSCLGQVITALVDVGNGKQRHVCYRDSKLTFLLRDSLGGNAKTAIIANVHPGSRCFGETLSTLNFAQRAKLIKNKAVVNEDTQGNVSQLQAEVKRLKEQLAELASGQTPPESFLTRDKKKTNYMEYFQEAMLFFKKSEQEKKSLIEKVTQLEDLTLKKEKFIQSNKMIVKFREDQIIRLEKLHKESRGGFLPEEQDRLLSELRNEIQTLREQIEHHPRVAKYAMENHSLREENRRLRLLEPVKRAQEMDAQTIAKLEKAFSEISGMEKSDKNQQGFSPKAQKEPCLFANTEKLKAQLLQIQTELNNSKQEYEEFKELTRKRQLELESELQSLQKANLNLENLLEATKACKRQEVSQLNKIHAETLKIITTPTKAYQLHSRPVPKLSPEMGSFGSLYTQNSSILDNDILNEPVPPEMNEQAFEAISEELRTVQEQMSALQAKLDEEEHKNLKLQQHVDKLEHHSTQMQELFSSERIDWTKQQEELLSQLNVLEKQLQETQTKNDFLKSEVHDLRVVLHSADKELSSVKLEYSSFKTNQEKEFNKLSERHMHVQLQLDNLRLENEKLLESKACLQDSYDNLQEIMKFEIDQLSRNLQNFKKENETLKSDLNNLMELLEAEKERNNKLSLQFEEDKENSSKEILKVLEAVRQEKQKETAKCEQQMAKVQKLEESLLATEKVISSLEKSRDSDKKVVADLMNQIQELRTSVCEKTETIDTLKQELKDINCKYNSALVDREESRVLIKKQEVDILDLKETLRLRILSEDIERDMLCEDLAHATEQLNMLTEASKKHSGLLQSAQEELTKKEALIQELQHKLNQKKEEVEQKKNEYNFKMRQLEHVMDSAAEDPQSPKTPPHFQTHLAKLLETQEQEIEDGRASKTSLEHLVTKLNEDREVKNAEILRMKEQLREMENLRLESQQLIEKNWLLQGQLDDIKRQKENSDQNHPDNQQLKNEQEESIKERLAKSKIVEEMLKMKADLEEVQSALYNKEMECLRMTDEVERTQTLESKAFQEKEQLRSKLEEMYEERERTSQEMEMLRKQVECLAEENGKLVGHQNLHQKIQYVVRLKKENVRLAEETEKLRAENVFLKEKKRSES

fraction of the provided hKif15 in the complex: 0.33
Substance: human His6-Tpx2 (from UniProt Q9ULW0 1-747) (natural protein)
